From patent publication US20210238260A1 (published 2021) come the findings set out here.

For experiment [1], the target named is T1, Factor VIIIa (recombinant FVIII, Kogenate FS, activated with alpha-thrombin) (UniProt P00451 20-2351).
T1 construct: also called FVIIIa
T1 sequence (looked up): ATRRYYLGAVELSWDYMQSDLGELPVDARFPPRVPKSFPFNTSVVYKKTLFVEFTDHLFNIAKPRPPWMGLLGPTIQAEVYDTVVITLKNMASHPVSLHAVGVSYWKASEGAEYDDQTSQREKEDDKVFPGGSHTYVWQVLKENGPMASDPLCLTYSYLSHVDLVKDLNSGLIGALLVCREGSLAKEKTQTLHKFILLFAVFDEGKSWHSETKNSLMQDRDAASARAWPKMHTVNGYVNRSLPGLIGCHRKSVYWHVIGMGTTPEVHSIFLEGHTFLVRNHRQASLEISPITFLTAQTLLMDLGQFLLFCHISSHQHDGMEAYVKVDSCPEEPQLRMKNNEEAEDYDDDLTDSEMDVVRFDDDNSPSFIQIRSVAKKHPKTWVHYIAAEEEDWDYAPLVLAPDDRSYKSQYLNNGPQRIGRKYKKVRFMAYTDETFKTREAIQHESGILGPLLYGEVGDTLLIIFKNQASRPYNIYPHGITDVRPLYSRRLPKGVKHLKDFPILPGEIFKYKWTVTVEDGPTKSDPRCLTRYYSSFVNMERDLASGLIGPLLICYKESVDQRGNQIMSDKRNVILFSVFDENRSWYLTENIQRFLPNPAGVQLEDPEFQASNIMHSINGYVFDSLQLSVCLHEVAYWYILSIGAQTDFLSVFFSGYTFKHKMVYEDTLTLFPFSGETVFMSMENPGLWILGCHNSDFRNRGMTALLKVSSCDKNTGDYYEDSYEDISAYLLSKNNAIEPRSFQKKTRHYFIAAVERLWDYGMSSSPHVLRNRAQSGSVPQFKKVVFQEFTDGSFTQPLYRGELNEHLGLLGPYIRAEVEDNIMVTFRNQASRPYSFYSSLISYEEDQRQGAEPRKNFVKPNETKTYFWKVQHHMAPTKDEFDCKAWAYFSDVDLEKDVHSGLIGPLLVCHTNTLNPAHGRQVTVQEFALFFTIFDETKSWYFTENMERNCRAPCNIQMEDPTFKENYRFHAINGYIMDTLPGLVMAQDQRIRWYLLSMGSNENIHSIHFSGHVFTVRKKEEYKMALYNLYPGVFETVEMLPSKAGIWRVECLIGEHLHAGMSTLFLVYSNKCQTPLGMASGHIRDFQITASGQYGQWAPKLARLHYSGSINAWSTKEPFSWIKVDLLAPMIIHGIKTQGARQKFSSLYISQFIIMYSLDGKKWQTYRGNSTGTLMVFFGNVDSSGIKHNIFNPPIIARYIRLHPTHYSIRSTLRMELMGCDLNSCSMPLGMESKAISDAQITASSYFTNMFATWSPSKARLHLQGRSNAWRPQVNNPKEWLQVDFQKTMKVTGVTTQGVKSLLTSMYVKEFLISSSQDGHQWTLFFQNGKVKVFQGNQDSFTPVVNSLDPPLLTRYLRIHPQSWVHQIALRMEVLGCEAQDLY
Briefly: ratio of KD-app of wild-type FIXa (Catalyst Biosciences WT, SEQ ID NO:3) to that of the variant, same Xase assay.

For experiment [2], the target named is T1, Factor VIIIa (recombinant FVIII, …). Put plainly: functional cofactor affinity KD-app: fluorogenic FX activation (Xase) assay, FVIIIa titrated, PC/PS vesicles, saturating FX.
The target of experiment [3] is T2, Factor VIIIa (recombinant FVIII, Kogenate FS, activated with alpha-thrombin) (UniProt P00451 20-2351).
T2 construct: also called FVIIIa; cofactor
T2 sequence (looked up): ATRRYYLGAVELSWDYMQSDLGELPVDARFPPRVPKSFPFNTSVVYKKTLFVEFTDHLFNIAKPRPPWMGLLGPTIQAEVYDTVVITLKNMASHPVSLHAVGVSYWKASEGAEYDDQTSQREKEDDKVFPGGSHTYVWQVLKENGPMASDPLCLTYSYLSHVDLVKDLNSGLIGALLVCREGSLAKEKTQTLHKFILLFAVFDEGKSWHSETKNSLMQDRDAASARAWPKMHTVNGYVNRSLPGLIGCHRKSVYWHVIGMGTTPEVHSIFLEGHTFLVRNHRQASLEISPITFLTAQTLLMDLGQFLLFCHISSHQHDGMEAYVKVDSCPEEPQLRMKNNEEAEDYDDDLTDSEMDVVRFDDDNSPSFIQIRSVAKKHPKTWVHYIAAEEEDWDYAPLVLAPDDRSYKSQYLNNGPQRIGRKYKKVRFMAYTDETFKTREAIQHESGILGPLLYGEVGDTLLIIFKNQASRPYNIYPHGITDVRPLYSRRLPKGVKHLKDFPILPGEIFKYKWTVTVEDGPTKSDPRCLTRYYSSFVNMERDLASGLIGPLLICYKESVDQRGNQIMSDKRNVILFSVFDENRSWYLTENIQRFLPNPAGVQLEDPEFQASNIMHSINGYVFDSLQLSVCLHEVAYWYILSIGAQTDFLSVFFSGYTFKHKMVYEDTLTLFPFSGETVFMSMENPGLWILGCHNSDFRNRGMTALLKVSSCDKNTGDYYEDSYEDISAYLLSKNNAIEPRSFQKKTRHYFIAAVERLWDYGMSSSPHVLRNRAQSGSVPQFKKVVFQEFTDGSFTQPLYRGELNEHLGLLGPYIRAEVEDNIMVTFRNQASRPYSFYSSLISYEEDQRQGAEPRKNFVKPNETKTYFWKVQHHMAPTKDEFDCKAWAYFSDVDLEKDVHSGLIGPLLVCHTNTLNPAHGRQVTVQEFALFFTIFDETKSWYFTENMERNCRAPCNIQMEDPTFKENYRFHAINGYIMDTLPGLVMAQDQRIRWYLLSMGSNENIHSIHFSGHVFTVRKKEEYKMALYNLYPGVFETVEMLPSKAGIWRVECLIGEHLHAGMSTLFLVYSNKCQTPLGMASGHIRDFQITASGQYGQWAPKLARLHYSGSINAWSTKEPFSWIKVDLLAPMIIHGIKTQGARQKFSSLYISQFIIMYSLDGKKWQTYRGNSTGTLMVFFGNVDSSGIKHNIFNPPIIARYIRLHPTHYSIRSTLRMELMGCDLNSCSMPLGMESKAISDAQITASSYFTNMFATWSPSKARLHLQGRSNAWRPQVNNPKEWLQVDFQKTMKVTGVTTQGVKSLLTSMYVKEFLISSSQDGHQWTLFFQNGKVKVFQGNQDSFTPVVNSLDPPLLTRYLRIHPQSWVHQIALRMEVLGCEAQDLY
Put plainly: same assay; ratio of KD-app of Catalyst Biosciences WT FIXa to KD-app of this FIXa.

Experiment [4] addresses T2, Factor VIIIa (recombinant FVIII, …). Put plainly: apparent functional KD (KD-app): FXa generation by FIXa with FVIIIa titrated, PC/PS vesicles, saturating FX, fluorogenic Spectrafluor FXa.

B1: FIXa-Y155F/K247N/N249S/R318Y/R338E/T343R/R403E/E410N (enzyme)
chain 1: YNSGKLEEFVQGNLERECMEEKCSFEEAREVFENTERTTEFWKQYVDGDQCESNPCLNGGSCKDDINSYECWCPFGFEGKNCELDVTCNIKNGRCEQFCKNSADNKVVCSCTEGYRLAENQKSCEPAVPFPCGRVSVSQTSKLTR
chain 2: VVGGEDAKPGQFPWQVVLNGKVDAFCGGSIVNEKWIVTAAHCVETGVKITVVAGEHNIEETEHTEQNRSVIRIIPHHNYNAAINKYNHDIALLELDEPLVLNSYVTPICIADKEYTNIFLKFGSGYVSGWGRVFHKGYSALVLQYLRVPLVDRATCLESTKFRIYNNMFCAGFHEGGRDSCQGDSGGPHVTEVEGTSFLTGIISWGEECAMKGKYGIYTKVSEYVNWIKNKTKLT
B1: in experiment [1], the KD-WT/KD-mut turned out to be 6.3. The Kd in experiment [2] was determined as 15.3 nM.

B2: FIXa-Y155F/K247N/N249S/R318Y/R338E/T343R/E410N (enzyme)
chain 1: YNSGKLEEFVQGNLERECMEEKCSFEEAREVFENTERTTEFWKQYVDGDQCESNPCLNGGSCKDDINSYECWCPFGFEGKNCELDVTCNIKNGRCEQFCKNSADNKVVCSCTEGYRLAENQKSCEPAVPFPCGRVSVSQTSKLTR
chain 2: VVGGEDAKPGQFPWQVVLNGKVDAFCGGSIVNEKWIVTAAHCVETGVKITVVAGEHNIEETEHTEQNRSVIRIIPHHNYNAAINKYNHDIALLELDEPLVLNSYVTPICIADKEYTNIFLKFGSGYVSGWGRVFHKGYSALVLQYLRVPLVDRATCLESTKFRIYNNMFCAGFHEGGRDSCQGDSGGPHVTEVEGTSFLTGIISWGEECAMKGKYGIYTKVSRYVNWIKNKTKLT
On to B2, for which the KD-WT/KD-mut in experiment [1] worked out at 6.9. For the same molecule, in experiment [2], the Kd stood at 13.9 nM.

B3: FIXa-R318Y/R338E/R403E (enzyme)
chain 1: YNSGKLEEFVQGNLERECMEEKCSFEEAREVFENTERTTEFWKQYVDGDQCESNPCLNGGSCKDDINSYECWCPFGFEGKNCELDVTCNIKNGRCEQFCKNSADNKVVCSCTEGYRLAENQKSCEPAVPFPCGRVSVSQTSKLTR
chain 2: VVGGEDAKPGQFPWQVVLNGKVDAFCGGSIVNEKWIVTAAHCVETGVKITVVAGEHNIEETEHTEQKRNVIRIIPHHNYNAAINKYNHDIALLELDEPLVLNSYVTPICIADKEYTNIFLKFGSGYVSGWGRVFHKGYSALVLQYLRVPLVDRATCLESTKFTIYNNMFCAGFHEGGRDSCQGDSGGPHVTEVEGTSFLTGIISWGEECAMKGKYGIYTKVSEYVNWIKEKTKLT
notes: also called R150Y/R170E/R233E
Regarding B3, the KD-WT/KD-mut in experiment [3] came out at 0.3. In addition, the Kd in experiment [4] was 340 nM.

B4: FIXa-D104N/K106S/Y155F/R318Y/R338E/R403E/E410N (enzyme)
chain 1: YNSGKLEEFVQGNLERECMEEKCSFEEAREVFENTERTTEFWKQYVDGDQCESNPCLNGGSCKDDINSYECWCPFGFEGKNCELDVTCNIKNGRCEQFCKNSANNSVVCSCTEGYRLAENQKSCEPAVPFPCGRVSVSQTSKLTR
chain 2: VVGGEDAKPGQFPWQVVLNGKVDAFCGGSIVNEKWIVTAAHCVETGVKITVVAGEHNIEETEHTEQKRNVIRIIPHHNYNAAINKYNHDIALLELDEPLVLNSYVTPICIADKEYTNIFLKFGSGYVSGWGRVFHKGYSALVLQYLRVPLVDRATCLESTKFTIYNNMFCAGFHEGGRDSCQGDSGGPHVTEVEGTSFLTGIISWGEECAMKGKYGIYTKVSEYVNWIKNKTKLT
Turning to B4, the KD-WT/KD-mut in experiment [3] turned out to be 1.6. For the same molecule, the Kd in experiment [4] amounted to 61.6 nM.

B5: FIXa-R318Y/T343R/R403E/E410N (enzyme)
chain 1: YNSGKLEEFVQGNLERECMEEKCSFEEAREVFENTERTTEFWKQYVDGDQCESNPCLNGGSCKDDINSYECWCPFGFEGKNCELDVTCNIKNGRCEQFCKNSADNKVVCSCTEGYRLAENQKSCEPAVPFPCGRVSVSQTSKLTR
chain 2: VVGGEDAKPGQFPWQVVLNGKVDAFCGGSIVNEKWIVTAAHCVETGVKITVVAGEHNIEETEHTEQKRNVIRIIPHHNYNAAINKYNHDIALLELDEPLVLNSYVTPICIADKEYTNIFLKFGSGYVSGWGRVFHKGYSALVLQYLRVPLVDRATCLRSTKFRIYNNMFCAGFHEGGRDSCQGDSGGPHVTEVEGTSFLTGIISWGEECAMKGKYGIYTKVSEYVNWIKNKTKLT
notes: also called R150Y/T175R/R233E/E240N (chymotrypsin numbering)
Take B5: the KD-WT/KD-mut in experiment [1] amounted to 1.1. The Kd in experiment [2] was 84.1 nM.
